Experimental data reported in PMC6537586.

Conditions: ubiquitination at K571

Which degradation_or_half_life does the source give for ELL2: K571R here?
The degradation_or_half_life was “no change, half-life less than 6 h”.
